# Experimental data from CN118638216A (CHENZHOU NO 1 PEOPLES HOSPITAL, dated 2024).
# B1: 全人源广谱抗sarbecovirus和/或新冠突变株的抗体(VSCM8-83) (antibody, V domains shown)
# VH: EVQLVEFGGGLVQPGGSLRLSCAASGFAVSSNYMSWVRQAPGKGLEWVSVIYGDGTTYYGDSVKGRFTISRHNSKNTLYLQMNSLRTEDTAVYYCARIVSEAFDLWGQGTMVTVSS
# VL: DIQMTQSPSTLSASVGDRVTITCRASQSIGRWLAWYQQKPGKAPKLLIYMASILESGVPSRFSGSGSATEFTLTISSLQPDDFATYYCQQYNGYSQYTFGQGTKLEIKR
# Columns and labels:
# [1] = target: SARS-CoV-2 Gamma突变株S蛋白 (假病毒, Genebank:MZ427312.1) (SARS-CoV-2 Gamma突变株); test: cell-based or functional assay
# SARS-CoV-2 S1蛋白(Sino …) = target: T1, SARS-CoV-2 S1蛋白(Sino Biological，货号:40591-V08H) (SARS-CoV-2, UniProt P0DTC2 16-685); test: ELISA, S1 protein coated at 2 μg/mL, antibody at 1 μg/mL
# T1 construct: domain: S1
# [2] = target: T2, SARS-CoV-2 Wuhan-Hu-1 S蛋白(Sino Biological，货号:40589-V08B1) (SARS-CoV-2 Wuhan-Hu-1, UniProt P0DTC2 14-1213); test: ELISA screen, S protein coated at 2 μg/mL, antibody at 1 μg/mL
# T2 construct: extracellular domain
# SARS-CoV S1蛋白(Sino …) = target: SARS-CoV S1蛋白(Sino Biological，货号:40150-V08B1) (SARS-CoV, UniProt P59594 14-667); test: ELISA, S1 protein coated at 2 μg/mL, antibody titrated from 10 μg/mL
# SARS-CoV-2 S2蛋白(Sino …) = target: T3, SARS-CoV-2 S2蛋白(Sino Biological，货号:40590-V08B) (SARS-CoV-2, UniProt P0DTC2 686-1213); test: ELISA, S2 protein coated at 2 μg/mL, antibody at 1 μg/mL, anti-human IgG-HRP
# T3 construct: domain: S2
binder,measurement,setting,value
B1,假病毒中和 IC50,[1],0.0207 mg/L
same,binding result,SARS-CoV-2 S1蛋白(Sino …),binds
same,binding result,[2],binds
same,binding result,SARS-CoV S1蛋白(Sino …),binds
same,binding result,SARS-CoV-2 S2蛋白(Sino …),no binding (tested: 1μg/mL)
